This is an account of results in a protein production outcome set (Wang et al. 2014).

The data set is described as follows: label from the status in PepcDB records.
On to “EGAGDALTTVAERARLLADACAGVILHPTAEGGMAIVTASTPDDPDGMVGATIEPGSPVLEQLLGGEPVFVDDSATDPRMTTHVRHRFGPSMMLPLQAGGRLIGTLALPRRRGGRPYTDLERLLATQFASQAALALVLADARRGRELLAVYEDRDRIARDLHDLVV”, for which the protein production entry is recorded as “failed”.
For the sequence “MDLPVMPPVKPMLAKSVAKIPPDMQYEAKWDGFRAIVFRDGTEVELGSRTGKPLTRYFPELVEALRDRLPERCVIDGEIVIARDGRLDFDALTERIHPAESRVRMLAEKTPASFVAFDLLALADDSLLDTPLTERRALLESALSGVTAPVHVAPATTDREVAEQWFEQYEGAGLDGVIAKPLTLRYRQDERAMFKVKHERTADVVVAGYRLHKSGPVVGSLLLGLYDDRGALQHVGVSAAFPMKRRAELVEELEPLRMEDAAGHPWAAWSNEAAHETARLPGAPSRWSGKKDLSWVPLRPERVAEVAYDHMENGARFRHTARFRRWRPDRTPESCTYAQLEEPVSYDLTEILGSRGLEHHHHHH”, the protein production entry was “not failed”.
Turning to “MVSFRSRSNPAVVILGLGRFGMALGEELVHSGVEVMGIDTNPAVVDKASAILTYAAVADTTSEEALRQLAVNEASRVVIGIGSDMGASLLTASAVVEFNIPSIWAKALNNSHAKILKQIGVHHIIRPEQDTGRRIAHLMNGRVQEYAEFDRDYAIVKIAPPVSALGKKVCDFDRVQIIAVRPAGGMFRQSKPEMVLRSGDLILAAGNPDELERFGTLD”, the protein production result is recorded as “failed”.
Turning to “MKTAQHETISNREFYFVLYMMLLYVTGWVIDVNGLFLSSYFNLAGEIMLPLVGGIVGLFIMSVNKQQTK”, the protein production entry is listed as “failed”.
Next, “MTLNRILWNYLIAPTVITIAVCGCTTQTPNTQDLIAQSPKDSQLVRTLSARSDSGYSVAYSPSSVGTILASAGAKSIKLWNPNTGKLLRTLSGQAFTVSFSPDGQILASGSQDGSLNLWDVQTGKLIRTLQHSEPVLGVVFSPDGQTLVSNLDLGSIIRLWNWRTGEIIRIKDDPDAYQKGFENFKTQPATFSLDGQTLFATSGSGSMLQSWNLKTSKRTGSFDAKSSINAVAISPDGNTLATGIRDNAIKLWNINDGKLIHTLTGHQGQVRTVAFSPDGTLLASGSSDGTVKLWNATTGKEINTFTAHKEQVWSVAFNPDGKTLASTGQDGSVKIWGVSPQ”: “failed”; “MAEARPDSLTRSRAAKPAGEGAAFSPLYRQIKELLVQSLDRGEWKPGELIPSEIDLAARFQVSQGTVRKAVDELAAEHLLLRRQGKGTFVATHHEARVRYRFLRLAPDEEGEGGRAESRILECRRLRAPAEIARALELRAGETVVTIRRQLSMNHMPTVIDDLWLPGTHFRGLTLELLTASKAPLYGLFESEFGVSMVRADEKLRAVAASPEIAPLLGVEPGRPLLQVDRISYTYGDRPMEVRRGLYLTDHYHYRNSLN”: “not failed”.
“MTQTNNPLHGITLETIITQLVEHYGWEELGARIKIRCFTEAPSIKSSLRFLRKTDWAREKVEYLYLKTNKLPLPAAKSIQAPAKEPSKKSAPKPNSKPTQTKVVTPTPAVEGQVNSHIWGKRDLEHHHHHH”: the protein production entry was “not failed”.
Consider “MKVKSPLEVYNYLPRTNCGECGFDTCMSFAAHILDRSVTPLDCKPLVRDAEKDPKVKKKLEELLELTAPEIAEVVIGVGENAVKIGGEEVLHRHELTFFNPTGFFYDVWDTMDDKALEERCDRVVSYKKFYVGNFLTLDGFAVRCTSGDPKRYREVVKKVASYGKPLILVALDSECMKAALEEVADQRPLMYAATEGNWKEFLKLALEYKVPVTLRAKDLDLLKSMAVTFKQAGVKDIVLDPVTEPLGEGLKGTFERVIQLRRTAIAGQDKDVAYPIMITPIAAWLIEGDDVTKSYWEAVIASIFIVKYGDVMIFRSIDQHVVMPTITLRFNIYTDPRTPVQVEPGLRAINDPGPDDPVFITTNFALTYYTVESDLTSGGIKGWLLVLNTEGLGVEVSVAGGQFTASKVKELIEETKIEEKVNHRYLVIPGLAARLQGAIEDETGWKVLVGPMDSGRIKGWLEKNWPPKE”, for which the protein production result is “not failed”.
As to “MVKDRQIQKTKVAIYNAFISLLQENDYSKITVQDVIGLANVGRSTFYSHYESKEVLLKELCEDLFHHLFKQGRDVTFEEYLVHILKHFEQNQDSIATLLLSDDPYFLLRFRSELEHDVYPRLREEYITKVDIPEDFLKQFLLSSFIETLKWWLHQRQKMTVEDLLKYYLTMVER”, the protein production result was “not failed”.
For “MKDLKDSLKILYQFKTDYLKVTLLLTILQAFVIGPFIYYFFFFILRVIGVPGITDANLGEVFSSPVAVIMLLILALLILLFVYYELGFFIMMAIYQLRGESYTVFKIIQRLNVKAKYFLSYQAIYFLLYFFLLLPIAGLSLPITITENLYLPHFITDELMKTTTGTWLYVIAIAIIFYISARLVFALPYFIEDKSLKISGAIRKSWKFSQKHLFFMLLKWVLIIVVIGFLVSIIATIIMLPLLLVEKITPGIAVVIAGITLTILQVIGFFAAGIFQGIIAQLLVKNAFAIEGQHAPVARNQFPHKKRFIIVAIIVFIIFSGFNIFTVNATLYEPNTKIIAHRGDTMNAVENTVEAIESAAKSGADYSEIDIQETKDHQFVVFHDMTLRRLAGSSKRVADMTLKELQQTKVKSGDYSSHIASFDEIIKTAKKNKIDLLVEVKLHGGESSDMVERLVTLLKKEKVTDKYLVQSLNQPVIEEIEKADPSLKTGIILALNIGNLPKTSADFIVLEDFSINKRLLTQAKQNDKMVFVWTVNKEKLMQMYLRKNVDGIITNYPKKAIELRESFNENDSLRSRIENRLGF” the value was “failed”; for “DGDIGQLSKTFNYMVSELKSRRNELIAVRDQIDERRRFSEAVLSGVTAGVAGIDDNGNITIINRSIETMFDIRSEHVIGHSLLSLSAEIDQVFQFARSLGRKNHREQVTLSVAGQERVCNVQITMEKDDG”, “failed”.
As to “MGSGWGPLEPWDRLAQPRPATGRLAAPPHCPPALPLHSAAPGSRTGTGAMERTAGKELALAPLQDWGEETEDGAVYSVSLRRQRSQRSTPEGSGDGQTPIPAMDTFLQYRTSKVRALRAARLERLVHELVSGDREQDPGFVPAFLATHRAFVPTARVLGFLLPPPPPPPPPPAGVDSKRTEGQDLNFSKNLRAVVSVLGSWLRDHPQDFRDPPDHQNLGDVRIFLGWAAPGGAEVREAEKLLEDFLKEAKEEQTEGEQRLAWAGPPWAAQSPRSEFAEDYSEEEGLRSEGPELLDFSVDEVAEQLTLMDVELFLRVRSCECLGSMWSQRDRPGAAGISPTVRATVAQFNAVTGCVLGSVLAAPGLAASQRAQRIEKWIRIAQRCRELRNFSSLRAILSALQSNPIYRLKRSWGAVSREPLSVFRKLSQIFSDEDNHLSSRAILSQEETTEGPQGDDCSPGSLPSKLPPGPVPYLGTFLTDLVMLDTALPDMLKGNLINFEKRRKEWEILARIQQLQHRCQHYSLSPRPPILAALRAQRQLSEEQSYRVSRVIEPPAASCPSSPRIRRRISLTKRLSAKLSREKNQSPGGSPGDPPSPTSSVSPGSPPASPRSQDPPPGSPPASPGPQSPSTKLSLSMEPPGPWPMTLTPSSSRTPLLGQQTSEARVIRVSINNNHGNLYRSILLTCQDKAPSVVQRALEKHNVPQPWARDYQLLQVLPGDRELLIPDSANVFYAMNPAAPGDFLLRRKEGTGHTPSASPS”, the protein production entry is given as “failed”.
For “MHYTETGSPRLAILIDADNTFRFINVIDELLEEISKYGDVSIRRIYGDWTETKMQRWKEILPKYAIQPIQQYANTKGKNSTDSALIIDAMDLLYTAPLDGFCIVSSDSDFTRLATRLRESGKQVYGFGEQKTPDSLIAACNKFIYIEILSKEKLSDPPEPTPISTSETSASVESKPPAAPSTPLSPAALAPGIRKSSRELAMDTRLISLIRSAISALSDDDGYAHIGEIKKYMIKNFPAFDSRNYGYSKFSELIKATGLFDIDKDKQRIKDKRKK” the value was “failed”; for “MSAFHIRAEQSRDISAIHDVTEAAFTGIEHSDGTEQDLVDKLRAAKALSLSLVAEADGEVIGHIAASEVLIGGGVQGWFGIGPVSVRPDKQQQGVGIALMGSALDQLRAEGAGGIVLLGDPGYYRRFGFEVVPGLVYPDAPAEFFMAVCLNAPAFPQGVVEYHSAFGG”, “failed”.
For “MTTTKDVPIDLKASGKTAADTSYSFSSDTKSVTVTGTKAALAKLKSLPVNVDVTNVDSTTTKTVDVSTSDEDGISSVSPTSVKVKITVKNDLEHHHHHH”, the protein production entry is on record as “not failed”.
Next, “MFRCQTKGWCKSLKPKVFLEFVEIKSLIASVLPFVLGSMYAYYNYHQLHLGYLLLFFIASSLFHMATNANDNYQDFLHAPRNDDNQEFLQETNVVGVNQISIGQARTITFGLAGISLIIGLWLVTQTGLPLLWMGLYSYAVGYFYAGGPKPISQGPFGEFFSGFTMGFMIFWIAVFINTYDTAAITWQSTLAVLIASGLAIFAISNIMLANNICDMDEDIALGRHTILYYLGKPVMLQVFAWSYVAGYACLVIAVLMGVLPKFSLLTLLSIIPVWKNTRVFLHKQVKRETFTISIKNATLICLSFIVFMGLGLIFN”: “failed”; “MPSDGLPKNLEPLAAGDPATIGPYVLVGRLGSGGMGTVYLGRAPEKGTHVAIKVIRPELAFDEATRARFRDEMENARKVASFCTAKVLDHGTFQNRPYMVTEYIAGTALAEHIAEHGPLDSGTLHGFALGVAAALAAIHKAGLVHRDLKPANVLLSLSGPRVIDFGIARALNTSTSHTQTGIVMGSPGWMAPEQLLEEKVTTKADIFAWGCLVAFAGNGRHPFGNGDAMTLGKRMLFAEPDIGNLDPPLDRLVARALAKDPDQRPTAQELLLELAGGTDSNDTNDVVSHALHQSWRPNFPPMPPGYPPPSPQAHSGMPGPQAQAQAPGQTTIAPQPYAHPQQGGPGPMPPQAAGPQGGPQGGPQSPPMPQRPGPQASHHTGQIPVVPPTTGRQPPRSPAAQGSSGGPQARPYVPPNTLPPHRPLRPDSSRSRLLIVFAVLGAVLLAVVLVFGLVFFQDWFSSTSDTNPPGQGQEQQSSAPKEDPDDESDKSDTQAADPQAGESLRFDLLDWYCGNQVLDRPLIVNGGEYCVAEIEAHNSANYPVKFRHDLQILAHASGEQTKADAPLHGEGADPLWAGPIQPGDTVRGYLVFIVHSELTPEVLILRSTVDSPGQQIEIPSGQPA”: “failed”; “MTWRKLSICMMVKDEEKNLKRCLESLKPILKGDEVELIVVDTGSKDRTVEIAKQYTNNIFYKPWNYNFSEMRNYTISLAKGEWIFILDADEELEDAKIILKEIEMAEKEGANAINIAVKNLVEENNKQNFVFGFSPRLFRNGFIKYEGAVHNQPIFRPPIYNSKIVIYHYGYIMNDTKLMEYKYKRTVSLLKKELEKDPLNIYYRYQLGVSYSMYGKIREAIEEFGKVYNLLKMENSEIKKGLVVVYGLYANNLLLLGLFDKALEVAEEGLNFNDEYIDLYYIAGLSLYAMGRRQEALVYFKKYMDLFKKVDQIKLLYDARVVFYNISNSYFDNVNAMVVQYLLDINNFLEAKVHIEQFKDNKLKLQYSTLLHIKEKNFNELFDFYSSCNQEDKEKVSEFIEKYITYFKFDEDERLEIYKKFSESNDVYGKYCCIITKKEKVESAILNIFDSNVFELLPSFYTKVLFRVAEKKEFLLETLKKIDVMVLRAKTAEALAAKFIDFEDVIQLLEVMKKEKADIDISARYIALALLVLLNFPRQSDERLYEIFLNYTENGILLISRLYKSEEIEEKYRYFLSEEEKYFALMYMIYLSLQEKRMDKSIKYLREAISTMPKLVKHLKRFSKDILGVDV”: “failed”.
Next, “MRVNGLTKGFFILIVFIVTLAFFDVLSPYYSAILWAAILAVIFNPVKNKIRTRLGERNGLAALMTIVIICLIVFTPLAIILSSLAYELNLVYSKLQHNDTQFPTVVASLFAHLPGWARSFLADHNLDSAQQIQQQLSDAALKGGQYLAGSAFLIGKGTFGFTVSFGIMLYLLFFLLKDGPYLVLLILESLPLSSYVKQHLFAKFAAVARATVKGTVAVALAQGALGGFAFWIAGLDGSILWGALMAFLSLIPAVGSAIIWVPAAIYLFATGQLWQGAFIVGFFVIVIGLVDNILRPLLVGKDTRMPDYLILIATLGGMEIYGINGFVIGPLIAALFIACWNLLSGREHAGNTDEIDEEFIEEAKNSRNE”: “failed”.
